According to patent publication US20260250404A1 (Genmab, published 2026):

Assays:
[1] = target: T1, recombinant human neonatal Fc receptor FcRn (SinoBiological CT071-H27H-B) (human, UniProt P55899 24-297; P61769 21-119); test: SPR (Biacore 8K) at pH 6.0; FcRn captured by anti-His, antibody as analyte; average of three measurements; pH 6.0
T1 construct: Composition of the bought protein is not described

[2] = target: T2, recombinant His-tagged human FcγRIIb (human, UniProt P31994 43-217, limits assumed); test: SPR (Biacore 8K), His-tagged FcγR captured on anti-His chip, antibody injected, binding response (RU), n=3
T2 sequence (looked up): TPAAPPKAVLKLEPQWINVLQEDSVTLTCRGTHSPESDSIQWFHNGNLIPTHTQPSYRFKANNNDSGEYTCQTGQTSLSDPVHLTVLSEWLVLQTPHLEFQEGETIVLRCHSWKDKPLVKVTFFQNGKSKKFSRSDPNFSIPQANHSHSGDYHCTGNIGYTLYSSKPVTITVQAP

[3] = target: T3, recombinant His-tagged human FcγRIIa, 167-Arg [R] / R131 variant (human, UniProt P12318 34-218, limits assumed); test: as above
T3 construct: catalogue numbers differ; also called FcγRIIa-R; FcγRIIa-R131
T3 sequence (looked up): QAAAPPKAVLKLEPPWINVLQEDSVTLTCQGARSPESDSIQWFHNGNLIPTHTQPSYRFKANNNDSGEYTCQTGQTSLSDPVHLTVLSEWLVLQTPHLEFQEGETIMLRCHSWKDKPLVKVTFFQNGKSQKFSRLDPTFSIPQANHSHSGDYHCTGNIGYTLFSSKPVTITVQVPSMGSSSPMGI

[4] = target: T4, human FcγRIa on the cell surface (transfected CHO-S cells, M0/M1 macrophages, hMDM, FcγRI effector reporter … (human, UniProt P12314 16-374)); test: flow cytometry on CHO-S cells transiently expressing human FcγRIa, PE goat anti-human IgG F(ab')2, % PE+ cells
T4 construct: whole, on cells; also called CD64
T4 sequence (P12314 16-374): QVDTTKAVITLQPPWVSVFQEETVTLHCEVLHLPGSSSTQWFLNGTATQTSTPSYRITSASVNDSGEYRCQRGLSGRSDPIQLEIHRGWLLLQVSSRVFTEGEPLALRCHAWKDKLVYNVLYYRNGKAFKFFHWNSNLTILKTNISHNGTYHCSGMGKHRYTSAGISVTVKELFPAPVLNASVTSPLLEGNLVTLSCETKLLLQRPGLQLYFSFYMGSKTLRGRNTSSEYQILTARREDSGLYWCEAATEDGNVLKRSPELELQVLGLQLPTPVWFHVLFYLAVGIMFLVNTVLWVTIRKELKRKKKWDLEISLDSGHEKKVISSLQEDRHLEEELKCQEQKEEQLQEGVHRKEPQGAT

[5] = target: T5, recombinant His-tagged human FcγRIIa, 167-His [H] / H131 variant (human, UniProt P12318 34-218, limits assumed); test: SPR (Biacore 8K), His-tagged FcγR captured on anti-His chip, antibody injected, binding response (RU), n=3
T5 construct: catalogue numbers differ; also called FcγRIIa-H; FcγRIIa-H131
T5 sequence (looked up): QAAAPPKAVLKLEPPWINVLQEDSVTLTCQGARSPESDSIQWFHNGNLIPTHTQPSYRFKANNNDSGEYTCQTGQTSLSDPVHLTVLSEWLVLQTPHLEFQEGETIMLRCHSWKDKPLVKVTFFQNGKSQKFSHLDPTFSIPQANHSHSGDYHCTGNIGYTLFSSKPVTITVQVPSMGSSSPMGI

[6] = target: T6, recombinant His-tagged human FcγRIIIa, 176-Val [V] / V158 variant (human, UniProt P08637 17-208); test: as above
T6 construct: also called FcγRIIIa-V; FcγRIIIa-V158
T6 sequence (P08637 other isoform, or with tags, fused parts or gaps mutant limits assumed): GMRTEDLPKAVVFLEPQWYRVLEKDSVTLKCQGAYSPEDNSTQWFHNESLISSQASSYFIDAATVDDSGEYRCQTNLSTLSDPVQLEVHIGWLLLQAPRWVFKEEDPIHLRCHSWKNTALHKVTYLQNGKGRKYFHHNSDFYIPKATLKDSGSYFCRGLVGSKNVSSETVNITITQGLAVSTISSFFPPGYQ

[7] = target: cynomolgus monkey PD-1 on transfected CHO-S cells (cynomolgus monkey, UniProt B0LAJ3 25-288); test: flow cytometry on CHO-S cells transiently transfected with cynomolgus monkey PD-1, PE goat anti-human IgG F(ab')2, gMFI (PE)
Chain of cynomolgus monkey PD-1 on transfected CHO-S cells (B0LAJ3 entry or part of it limits assumed): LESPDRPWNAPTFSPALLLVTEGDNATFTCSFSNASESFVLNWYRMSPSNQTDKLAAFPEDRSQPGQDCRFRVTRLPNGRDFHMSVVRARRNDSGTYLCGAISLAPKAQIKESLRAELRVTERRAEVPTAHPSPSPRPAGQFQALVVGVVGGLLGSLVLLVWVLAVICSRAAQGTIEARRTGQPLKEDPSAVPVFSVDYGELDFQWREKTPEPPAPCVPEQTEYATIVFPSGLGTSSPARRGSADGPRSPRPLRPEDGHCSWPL

[8] = target: T7, recombinant His-tagged human FcγRIIIa, 176-Phe [F] / F158 variant (human, UniProt P08637 17-208); test: SPR (Biacore 8K), His-tagged FcγR captured on anti-His chip, antibody injected, binding response (RU), n=3
T7 construct: also called FcγRIIIa-F; FcγRIIIa-F158
T7 sequence (P08637 17-208 limits assumed, change not shown): as the sequence (P08637 other isoform, or with tags, fused parts or gaps mutant limits assumed) above, with V160F counted along it

[9] = target: T8, human complement protein C1q (from normal human serum) (human, UniProt P02745 23-245; P02746 28-253; P02747 29-245); test: flow cytometry, C1q (20% normal human serum) binding to antibody bound on human T cells, FITC anti-C1q
T8 construct: Native C1q supplied as 20% normal human serum
T8 sequence (P02745 23-245, chain 1 of 3): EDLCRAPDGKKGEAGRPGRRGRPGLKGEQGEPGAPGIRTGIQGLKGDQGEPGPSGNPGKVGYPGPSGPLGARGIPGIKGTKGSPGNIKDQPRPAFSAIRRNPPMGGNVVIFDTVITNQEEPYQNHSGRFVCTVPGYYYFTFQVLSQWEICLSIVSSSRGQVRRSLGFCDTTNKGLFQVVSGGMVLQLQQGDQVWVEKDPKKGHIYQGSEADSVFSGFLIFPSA
T8 sequence (P02746 28-253, chain 2 of 3): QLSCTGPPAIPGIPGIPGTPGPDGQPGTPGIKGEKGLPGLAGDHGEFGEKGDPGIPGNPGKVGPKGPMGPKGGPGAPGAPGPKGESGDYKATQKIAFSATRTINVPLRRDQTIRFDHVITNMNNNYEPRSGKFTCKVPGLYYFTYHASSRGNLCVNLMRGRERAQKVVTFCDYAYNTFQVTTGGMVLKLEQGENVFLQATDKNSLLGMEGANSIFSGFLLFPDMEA
T8 sequence (P02747 29-245, chain 3 of 3): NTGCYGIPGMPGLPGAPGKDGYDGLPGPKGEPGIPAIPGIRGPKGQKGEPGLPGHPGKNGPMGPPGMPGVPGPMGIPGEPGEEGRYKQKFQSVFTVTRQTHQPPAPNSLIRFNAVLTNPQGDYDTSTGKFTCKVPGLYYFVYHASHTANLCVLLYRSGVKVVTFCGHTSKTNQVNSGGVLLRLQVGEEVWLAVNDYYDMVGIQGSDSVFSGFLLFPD

[10] = target: T8, human complement protein C1q (from …); test: flow cytometry, C1q (20% normal human serum) binding to antibody bound on human T cells, FITC anti-C1q, median MFI FITC
[11] = target: T9, recombinant cynomolgus monkey CD27-Fc fusion protein (R&D systems, Cat #9904-CD-100) (cynomolgus monkey, UniProt P26842 21-192 (human entry), limits assumed); test: BLI (Octet HTX); cyno CD27-Fc on AR2G sensor, antibody monovalent for CD27 in solution; 1:1 model
T9 construct: Bought protein; also called Cyno CD27-Fc; not shown: Fc part of the fusion; not described
T9 chain: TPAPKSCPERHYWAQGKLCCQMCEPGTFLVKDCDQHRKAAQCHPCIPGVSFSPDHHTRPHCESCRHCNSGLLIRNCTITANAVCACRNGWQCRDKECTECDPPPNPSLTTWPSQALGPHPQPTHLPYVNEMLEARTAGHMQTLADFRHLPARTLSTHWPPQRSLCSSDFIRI

[12] = target: T10, recombinant His-tagged human CD27 protein (Sino Biological, Cat #10039-H08B1) (human, UniProt P26842 20-192); test: BLI (Octet HTX); CD27-His on anti-Penta-HIS sensor, antibody monovalent for CD27 in solution; 1:1 model
T10 construct: Bought protein; also called Human CD27-His; not shown: His tag

B1: nivolumab (antibody, human IgG4 S228P, kappa)
heavy: not shown
light: not shown
notes: also called Opdivo
Kd [1]: 133 nM | koff [1]: 0.0689 s⁻¹ | kon [1]: 518000 M⁻¹ s⁻¹ | binding result [2]: binds | binding result [3]: binds | EC50 (read off the curve) [4]: ~0.2 µg/mL | binding result [5]: binds | binding result [6]: binds

B2: pembrolizumab (antibody, human IgG4 S228P, kappa)
heavy: not shown
light: EIVLTQSPATLSLSPGERATLSCRASKGVSTSGYSYLHWYQQKPGQAPRLLIYLASYLESGVPARFSGSGSGTDFTLTISSLEPEDFAVYYCQHSRDLPLTFGGGTKVEIKRTVAAPSVFIFPPSDEQLKSGTASVVCLLNNFYPREAKVQWKVDNALQSGNSQESVTEQDSKDSTYSLSSTLTLSKADYEKHKVYACEVTHQGLSSPVTKSFNRGEC
notes: also called Keytruda
EC50 (read off the curve) [7]: ~0.05 µg/mL | binding result [8]: binds | EC50 (read off the curve) [4]: ~0.8 µg/mL | binding result [6]: binds

B3: IgG1-CD27-A (wild-type IgG1 Fc) (antibody)
heavy: not shown
light: QSALTQPASVSGSPGQSITISCTGTSSDVYYYNYVSWYQQHPGRAPKLVIYDVSNRPSGVSNRFSGSKSGNTASLTISGLRAEDEADYYCSSYTVNRVWVFGGGTKLTVLGQPKAAPSVTLFPPSSEELQANKATLVCLISDFYPGAVTVAWKADSSPVKAGVETTTPSKQSNNKYAASSYLSLTPEQWKSHRSYSCQVTHEGSTVEKTVAPTECS
notes: also called WT IgG1-CD27-A; IgG-CD27-A; copies: 2 + 2
binding result [9]: no binding (tested: 15 µg/mL)

B4: IgG1-CD27-A-E345R (antibody)
heavy: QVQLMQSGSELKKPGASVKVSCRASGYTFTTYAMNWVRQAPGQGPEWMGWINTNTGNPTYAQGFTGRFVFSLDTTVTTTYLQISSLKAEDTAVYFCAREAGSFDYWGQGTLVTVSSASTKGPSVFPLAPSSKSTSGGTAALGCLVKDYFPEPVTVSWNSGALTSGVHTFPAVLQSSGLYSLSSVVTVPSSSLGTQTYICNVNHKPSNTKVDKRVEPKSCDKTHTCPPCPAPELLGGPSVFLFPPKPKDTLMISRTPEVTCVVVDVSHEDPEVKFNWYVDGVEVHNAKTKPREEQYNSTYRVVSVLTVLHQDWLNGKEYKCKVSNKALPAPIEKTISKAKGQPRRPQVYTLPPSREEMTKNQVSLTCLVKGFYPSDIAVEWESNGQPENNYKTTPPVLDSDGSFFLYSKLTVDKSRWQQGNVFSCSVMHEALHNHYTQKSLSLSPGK
light: QSALTQPASVSGSPGQSITISCTGTSSDVYYYNYVSWYQQHPGRAPKLVIYDVSNRPSGVSNRFSGSKSGNTASLTISGLRAEDEADYYCSSYTVNRVWVFGGGTKLTVLGQPKAAPSVTLFPPSSEELQANKATLVCLISDFYPGAVTVAWKADSSPVKAGVETTTPSKQSNNKYAASSYLSLTPEQWKSHRSYSCQVTHEGSTVEKTVAPTECS
notes: Human IgG1 with E345R (Eu numbering); also called IgG-CD27-A-E345R; copies: 2 + 2
binding result [10]: binds

B5: IgG1-CD27-A-E430G (antibody)
heavy: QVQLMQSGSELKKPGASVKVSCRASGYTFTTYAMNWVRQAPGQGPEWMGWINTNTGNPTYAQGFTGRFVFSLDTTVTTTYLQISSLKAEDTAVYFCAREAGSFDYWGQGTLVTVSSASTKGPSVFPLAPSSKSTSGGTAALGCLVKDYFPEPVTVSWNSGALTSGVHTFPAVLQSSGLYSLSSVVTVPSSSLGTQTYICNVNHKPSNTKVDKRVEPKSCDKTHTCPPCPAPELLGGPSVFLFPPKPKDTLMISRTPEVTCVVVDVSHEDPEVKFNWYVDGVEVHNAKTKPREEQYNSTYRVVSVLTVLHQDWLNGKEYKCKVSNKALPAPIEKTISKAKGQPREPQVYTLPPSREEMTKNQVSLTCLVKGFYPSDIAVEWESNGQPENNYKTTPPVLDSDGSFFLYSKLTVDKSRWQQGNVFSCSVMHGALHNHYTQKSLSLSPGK
light: QSALTQPASVSGSPGQSITISCTGTSSDVYYYNYVSWYQQHPGRAPKLVIYDVSNRPSGVSNRFSGSKSGNTASLTISGLRAEDEADYYCSSYTVNRVWVFGGGTKLTVLGQPKAAPSVTLFPPSSEELQANKATLVCLISDFYPGAVTVAWKADSSPVKAGVETTTPSKQSNNKYAASSYLSLTPEQWKSHRSYSCQVTHEGSTVEKTVAPTECS
notes: Human IgG1 with E430G (Eu numbering); copies: 2 + 2
EC50 (read off the curve) [10]: ~0.03 µg/mL

B6: dostarlimab (antibody)
chain 1: not shown
chain 2: DIQLTQSPSFLSAYVGDRVTITCKASQDVGTAVAWYQQKPGKAPKLLIYWASTLHTGVPSRFSGSGSGTEFTLTISSLQPEDFATYYCQHYSSYPWTFGQGTKLEIKRTVAAPSVFIFPPSDEQLKSGTASVVCLLNNFYPREAKVQWKVDNALQSGNSQESVTEQDSKDSTYSLSSTLTLSKADYEKHKVYACEVTHQGLSSPVTKSFNRGEC
EC50 (read off the curve) [4]: ~0.2 µg/mL

B7: IgG1-CD27-A as bispecific antibody with one CD27-specific Fab-arm and one non-binding Fab-arm (bispecific antibody)
chain 1: QVQLMQSGSELKKPGASVKVSCRASGYTFTTYAMNWVRQAPGQGPEWMGWINTNTGNPTYAQGFTGRFVFSLDTTVTTTYLQISSLKAEDTAVYFCAREAGSFDYWGQGTLVTVSS
chain 2: QSALTQPASVSGSPGQSITISCTGTSSDVYYYNYVSWYQQHPGRAPKLVIYDVSNRPSGVSNRFSGSKSGNTASLTISGLRAEDEADYYCSSYTVNRVWVFGGGTKLTVL
chain 3: QVQLVQSGAEVKKPGASVKVSCQASGYRFSNFVIHWVRQAPGQRFEWMGWINPYNGNKEFSAKFQDRVTFTADTSANTAYMELRSLRSADTAVYYCARVGPYSWDDSPQDNYYMDVWGKGTTVIVSSASTKGPSVFPLAPSSKSTSGGTAALGCLVKDYFPEPVTVSWNSGALTSGVHTFPAVLQSSGLYSLSSVVTVPSSSLGTQTYICNVNHKPSNTKVDKRVEPKSCDKTHTCPPCPAPEFEGGPSVFLFPPKPKDTLMISRTPEVTCVVVAVSHEDPEVKFNWYVDGVEVHNAKTKPREEQYNSTYRVVSVLTVLHQDWLNGKEYKCKVSNKALPAPIEKTISKAKGQPREPQVYTLPPSREEMTKNQVSLTCLVKGFYPSDIAVEWESNGQPENNYKTTPPVLDSDGSFFLYSRLTVDKSRWQQGNVFSCSVMHEALHNHYTQKSLSLSPG
chain 4: EIVLTQSPGTLSLSPGERATFSCRSSHSIRSRRVAWYQHKPGQAPRLVIHGVSNRASGISDRFSGSGSGTDFTLTITRVEPEDFALYYCQVYGASSYTFGQGTKLERKRTVAAPSVFIFPPSDEQLKSGTASVVCLLNNFYPREAKVQWKVDNALQSGNSQESVTEQDSKDSTYSLSSTLTLSKADYEKHKVYACEVTHQGLSSPVTKSFNRGEC
Kd [11]: 120 nM | koff [11]: 0.02 s⁻¹ | kon [11]: 170000 M⁻¹ s⁻¹ | Kd [12]: 130 nM | koff [12]: 0.018 s⁻¹ | kon [12]: 130000 M⁻¹ s⁻¹
